Test results: patent US20140212439A1 (Daiichi Sankyo, published 2014)

What was measured:
bovine serum albumin = molecular target: T1, bovine serum albumin (bovine, UniProt P02769 25-607); assay: ELISA on plate-coated BSA
T1 construct: Control protein in the ELISA; also called BSA
Protocol: A solution of an EPHA2 extracellular region polypeptide (manufactured by R&D Systems, Inc., #3035-A2-100) or bovine serum albumin (in the description below and the figures, abbreviated to “BSA”) as a control diluted to 1 μg/ml with PBS was dispensed at 100 μl/well onto an immunoplate (manufactured by Nunc, #442404) and incubated overnight at 4° C. to thereby adsorb the protein to the plate.
The plate was incubated at room temperature for 1 hour. Then, the solution in the wells was removed, and the wells were washed twice with Diluting Buffer. Goat anti-Mouse IgG, Peroxidase Conjugated (manufactured by Millipore (Chemicon), #AP181P) diluted 1000 times with Diluting Buffer was added at 100 μl/well and incubated at room temperature for 1 hour. The solution in the wells was removed, and the wells were washed twice with Diluting Buffer. Then, a color reaction was performed with stirring by the addition of OPD Color Developing Solution at 100 μl/well. After color development, the color reaction was terminated by the addition of 1 M HCl at 100 μl/well. The absorbance at 490 nm was measured using a plate reader (FIG. 7).

[1] = molecular target: human EPHA2 expressed on cells (human, UniProt P29317 24-976); assay: cell-based or functional assay
Sequence of human EPHA2 expressed on cells (P29317 24-976 limits assumed): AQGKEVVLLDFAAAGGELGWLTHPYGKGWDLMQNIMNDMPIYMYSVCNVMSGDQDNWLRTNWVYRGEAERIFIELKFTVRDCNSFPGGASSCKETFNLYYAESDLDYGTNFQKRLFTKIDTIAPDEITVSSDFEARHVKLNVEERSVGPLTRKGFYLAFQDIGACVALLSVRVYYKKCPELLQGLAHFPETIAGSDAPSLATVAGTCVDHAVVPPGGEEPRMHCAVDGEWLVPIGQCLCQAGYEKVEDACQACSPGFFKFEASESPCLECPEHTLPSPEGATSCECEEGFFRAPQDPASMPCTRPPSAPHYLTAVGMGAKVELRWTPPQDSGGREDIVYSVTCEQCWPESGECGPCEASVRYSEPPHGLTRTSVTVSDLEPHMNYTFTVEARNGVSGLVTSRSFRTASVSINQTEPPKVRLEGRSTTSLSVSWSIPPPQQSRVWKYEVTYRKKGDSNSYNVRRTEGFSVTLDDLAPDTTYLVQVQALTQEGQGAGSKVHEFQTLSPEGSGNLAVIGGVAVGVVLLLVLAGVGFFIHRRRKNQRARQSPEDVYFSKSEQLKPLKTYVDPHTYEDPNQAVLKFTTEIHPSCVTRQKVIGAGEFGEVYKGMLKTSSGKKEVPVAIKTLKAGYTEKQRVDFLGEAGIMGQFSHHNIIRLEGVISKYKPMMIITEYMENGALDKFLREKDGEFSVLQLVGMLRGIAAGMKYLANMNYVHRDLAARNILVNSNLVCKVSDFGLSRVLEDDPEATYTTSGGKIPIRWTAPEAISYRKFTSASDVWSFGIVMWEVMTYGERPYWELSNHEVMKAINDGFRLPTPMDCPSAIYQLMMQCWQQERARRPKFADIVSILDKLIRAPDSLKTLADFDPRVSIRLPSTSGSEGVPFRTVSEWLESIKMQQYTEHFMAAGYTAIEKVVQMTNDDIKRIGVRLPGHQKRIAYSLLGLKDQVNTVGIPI

T1 sequence (P02769 25-607 limits assumed): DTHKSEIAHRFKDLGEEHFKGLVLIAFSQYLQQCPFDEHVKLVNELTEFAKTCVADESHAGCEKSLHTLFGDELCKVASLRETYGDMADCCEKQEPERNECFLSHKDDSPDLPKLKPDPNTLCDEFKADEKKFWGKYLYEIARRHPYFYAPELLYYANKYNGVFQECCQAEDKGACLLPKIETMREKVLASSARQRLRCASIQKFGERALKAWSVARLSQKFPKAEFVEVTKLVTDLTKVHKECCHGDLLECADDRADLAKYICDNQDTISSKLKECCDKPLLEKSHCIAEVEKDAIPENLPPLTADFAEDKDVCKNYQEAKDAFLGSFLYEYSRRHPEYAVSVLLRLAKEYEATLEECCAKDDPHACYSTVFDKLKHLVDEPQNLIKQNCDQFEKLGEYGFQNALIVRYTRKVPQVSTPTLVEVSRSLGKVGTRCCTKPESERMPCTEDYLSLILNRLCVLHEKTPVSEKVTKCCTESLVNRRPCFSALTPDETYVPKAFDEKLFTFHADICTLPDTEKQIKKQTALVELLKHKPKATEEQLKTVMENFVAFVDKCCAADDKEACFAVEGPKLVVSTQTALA

B1: SH348-1 (antibody produced by hybridoma SH348-1, FERM BP-10836) (antibody, mouse IgG2a, kappa, V domains shown)
VH: QIQLVQSGPELKKPGETVKISCKASGYTFTHYSMHWVKQAPGKGLKWMGWINTYTGEPTYADDFKGRFAFSLETSASTAFLQINNLKNEDTATYFCATYYRYERDFDYWGQGTTLTVSS
VL: DVLMTQSPLSLPVSLGDQASISCRSSQSIVHSNGNTYLEWYLQKPGQSPKLLIYKVSNRFSGVPDRFSGSGSGTDFTLRISRVEAEDLGVYYCFQGSHVPYTFGGGTKLEIKR
modifications: N-terminal pyroglutamic acid
notes: Mouse monoclonal IgG2a, kappa; The ends of the cDNAs are primer-derived; also called bSH348-1 (biotinylated form)
binding result (bovine serum albumin): no binding (tested: up to 125 µg/ml) | EPHA2 protein level after 24 hours, EPHA2/β-actin band intensity relative to mIgG2a (100%), with cross-linking antibody [1]: 69% | EPHA2 protein level after 24 hours, EPHA2/β-actin band intensity relative to mIgG2a (100%), without cross-linking antibody [1]: 70%

B2: SH357-1 (antibody produced by hybridoma SH357-1, FERM BP-10837) (antibody, mouse IgG2a, kappa, V domains shown)
VH: QIQLVQSGPELKKPGETVKISCKASGYTFIDYSMHWVKQAPGKGLKWMGWINTYTGEPTYSDDFKGRFAFSLETSASTAYLQISNLKNEDTASYFCATYYRYERDFDYWGQGTTLTVSS
VL: DVLMTQTPLSLPVSLGDQASISCRSSQSIVHSSGITYLEWYLQKPGQSPKLLIYKVSNRFSGVPDRFSGSGSGTDFTLKISRVEAEDLGVYYCFQGSHVPYTFGGGTKLEIKR
notes: Mouse monoclonal IgG2a, kappa; also called bSH357-1 (biotinylated form)
binding result (bovine serum albumin): no binding (tested: up to 125 µg/ml)
